Measured values reported in publication PMC8683613.

Legend:
[1] = target: truncated pyruvate formate-lyase (tPFL, residues 1-695) (E. coli)
[2] = target: oxygen-cleaved pyruvate formate-lyase mimic (cPFL, residues 1-733) (E. coli); test: ITC; YfiD variant in the syringe titrated into the PFL variant in the cell, matched buffer; MicroCal iTC200, 25 °C, 20 injections of 2.0 μl
[3] = target: oxygen-cleaved pyruvate formate-lyase mimic (cPFL, residues 1-733) (E. coli)
[4] = target: oxygen-cleaved pyruvate formate-lyase mimic (cPFL, residues 1-733) (E. coli); remark: listed apart in the source

Chain of oxygen-cleaved pyruvate formate-lyase mimic (cPFL, residues 1-733) (E. coli) (P09373 2-734 limits assumed): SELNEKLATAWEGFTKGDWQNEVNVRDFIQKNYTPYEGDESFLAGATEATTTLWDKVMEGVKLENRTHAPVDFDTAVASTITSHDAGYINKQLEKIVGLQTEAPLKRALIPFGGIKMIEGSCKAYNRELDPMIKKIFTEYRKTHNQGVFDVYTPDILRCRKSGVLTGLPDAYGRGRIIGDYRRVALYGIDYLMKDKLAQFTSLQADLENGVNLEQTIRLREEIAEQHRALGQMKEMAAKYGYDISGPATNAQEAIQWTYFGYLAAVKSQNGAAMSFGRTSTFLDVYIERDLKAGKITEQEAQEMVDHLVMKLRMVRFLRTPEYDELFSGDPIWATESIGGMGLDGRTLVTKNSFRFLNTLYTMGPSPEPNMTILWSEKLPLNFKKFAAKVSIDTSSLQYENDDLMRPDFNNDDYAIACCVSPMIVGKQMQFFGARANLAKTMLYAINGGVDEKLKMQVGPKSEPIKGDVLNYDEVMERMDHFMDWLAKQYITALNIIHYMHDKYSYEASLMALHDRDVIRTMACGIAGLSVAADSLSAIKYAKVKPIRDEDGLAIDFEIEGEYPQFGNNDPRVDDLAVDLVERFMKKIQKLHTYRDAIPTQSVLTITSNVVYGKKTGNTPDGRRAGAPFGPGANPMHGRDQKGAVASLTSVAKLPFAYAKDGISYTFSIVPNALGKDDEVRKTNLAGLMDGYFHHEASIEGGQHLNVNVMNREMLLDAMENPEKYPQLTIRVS
Chain of truncated pyruvate formate-lyase (tPFL, residues 1-695) (E. coli) (P09373 1-695): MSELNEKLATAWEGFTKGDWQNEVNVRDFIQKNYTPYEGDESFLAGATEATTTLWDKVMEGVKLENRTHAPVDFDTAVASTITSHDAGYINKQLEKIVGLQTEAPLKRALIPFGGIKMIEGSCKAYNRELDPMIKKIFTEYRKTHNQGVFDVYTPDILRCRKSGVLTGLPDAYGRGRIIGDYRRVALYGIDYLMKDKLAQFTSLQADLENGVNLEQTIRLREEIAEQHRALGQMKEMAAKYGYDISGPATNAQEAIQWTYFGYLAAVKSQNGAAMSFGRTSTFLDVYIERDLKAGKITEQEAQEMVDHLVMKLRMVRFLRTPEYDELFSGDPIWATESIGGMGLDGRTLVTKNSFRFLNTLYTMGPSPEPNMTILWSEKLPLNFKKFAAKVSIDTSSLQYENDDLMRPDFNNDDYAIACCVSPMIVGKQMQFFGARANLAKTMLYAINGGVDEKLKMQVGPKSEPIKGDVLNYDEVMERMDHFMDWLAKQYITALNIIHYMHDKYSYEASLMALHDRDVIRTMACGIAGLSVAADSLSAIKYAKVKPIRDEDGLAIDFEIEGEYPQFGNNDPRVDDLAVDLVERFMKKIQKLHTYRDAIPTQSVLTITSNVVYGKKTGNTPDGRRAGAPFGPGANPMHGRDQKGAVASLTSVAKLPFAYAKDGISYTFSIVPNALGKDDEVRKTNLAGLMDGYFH

Substance	glycyl radical installed by PFL-AE on the 1:1 tPFL:YfiD mixture (200 μM each), quantified by EPR [1] [µM]	Kd [2] [µM]	glycyl radical installed by PFL-AE on the 1:1 cPFL:YfiD mixture (200 μM each), quantified by EPR; no detectable radical for the individual components [3] [µM]	glycyl radical installed by PFL-AE on the 1:1 tPFL:truncYfiD mixture (200 μM each), quantified by EPR [1] [µM]	apparent kcat of acetyl-CoA production by the activated cPFL:truncYfiD complex (coupled assay, 21 °C, per glycyl radical) [4] [s⁻¹]	glycyl radical installed by PFL-AE on the 1:1 cPFL:truncYfiD mixture (200 μM each), quantified by EPR [3] [µM]
YfiD (spare part protein, autonomous glycyl radical cofactor) (from UniProt P68066 1-127) (natural protein)	0.5	14	15.9			
truncated YfiD (truncYfiD, residues 61-127) (from UniProt P68066 61-127) (domain or fragment)				2.7	186	4.1
